# Measured values reported in patent US20240209100A1 (DIAGONAL THERAPEUTICS, published 2024).
# T1: IL-18 receptor (IL-18Rα/IL-18Rβ) overexpressed on HEK-Blue IL-18 cells (Homo sapiens (Human), UniProt Q13478 19-541; O95256 20-599)
# T1 sequence 1: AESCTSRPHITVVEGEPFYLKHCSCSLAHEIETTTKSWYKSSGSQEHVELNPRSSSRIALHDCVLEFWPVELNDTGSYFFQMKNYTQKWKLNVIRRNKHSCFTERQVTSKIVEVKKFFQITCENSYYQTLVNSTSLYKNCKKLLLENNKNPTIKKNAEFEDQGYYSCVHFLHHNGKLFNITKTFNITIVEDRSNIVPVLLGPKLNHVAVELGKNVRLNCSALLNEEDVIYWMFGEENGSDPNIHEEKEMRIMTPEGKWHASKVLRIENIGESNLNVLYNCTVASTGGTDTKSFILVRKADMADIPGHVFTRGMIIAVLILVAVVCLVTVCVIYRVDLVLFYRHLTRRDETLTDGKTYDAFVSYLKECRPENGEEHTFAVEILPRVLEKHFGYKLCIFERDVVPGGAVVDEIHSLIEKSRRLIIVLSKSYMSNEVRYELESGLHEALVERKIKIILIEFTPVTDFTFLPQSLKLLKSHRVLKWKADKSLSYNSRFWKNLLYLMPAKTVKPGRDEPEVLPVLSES
# T1 sequence 2: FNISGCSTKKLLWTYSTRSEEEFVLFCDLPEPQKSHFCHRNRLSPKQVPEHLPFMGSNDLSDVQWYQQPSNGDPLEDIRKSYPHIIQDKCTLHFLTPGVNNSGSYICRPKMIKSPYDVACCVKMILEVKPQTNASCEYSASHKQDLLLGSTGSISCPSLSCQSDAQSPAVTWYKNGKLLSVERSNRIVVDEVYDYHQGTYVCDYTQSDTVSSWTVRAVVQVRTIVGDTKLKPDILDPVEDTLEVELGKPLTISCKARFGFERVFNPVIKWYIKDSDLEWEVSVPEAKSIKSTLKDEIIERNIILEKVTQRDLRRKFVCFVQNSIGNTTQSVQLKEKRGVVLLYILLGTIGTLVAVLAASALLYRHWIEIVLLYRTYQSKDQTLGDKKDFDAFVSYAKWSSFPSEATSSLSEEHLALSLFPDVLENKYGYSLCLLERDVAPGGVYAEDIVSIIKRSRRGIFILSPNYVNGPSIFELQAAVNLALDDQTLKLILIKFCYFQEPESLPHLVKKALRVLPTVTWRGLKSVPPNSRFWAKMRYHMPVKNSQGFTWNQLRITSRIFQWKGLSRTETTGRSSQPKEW
# B1: DGL049 (bispecific antibody, V domains shown)
# V domain 1: QVQLQESGGGLVQAGGSLRLSCIVSGSIVRIDFMGWYRQAPGKKRDMVATITTGGSTNYADSVKDRFTISRDNAKNTLSLQVNDLKPEDTAVYYCNSVVHTTSRPPVLYWGQGTQVTVSS
# V domain 2: QVQLVESGGDLVLPGGSLKLSCEASGSISSRNSMAWYRRAPGKQRELVAAISSISSGGRTDYADFVKGRFTIFRDTAKNMVYLQMNNLKPEDTAVYDCDDPIRVASLAYDDWGQGTQVTVSS
# B2: DGL094 (bispecific antibody, V domains shown)
# V domain 1: QVQLVESGGGLVQAGGSLRLSCAASGRTFSSYTMGWFRQAPGKEREFVAAISWSAGRTYYADSVKGRFTISRDNAKNTVYLQMNSLKPEDTAVYFCAAEEAPDWAPIDCSGYGCLSLYDYWGQGTQVTVSS
# V domain 2: QVQLVESGGGLVLPGESLRLSCVVSGTIDNINSMGWYRQAPGKQRELVAYITKLGSANYADSVEGRFTISRDNAKKTVHLQMNSLKPEDTAVYYCHANERGRITWAQGTQVTVSS
# B3: DGL082 (bispecific antibody, V domains shown)
# V domain 1: EVQLVESGGGLVQPGGSLRLSCAASGSIFSINAMGWYRQAPGKQREVVATSTGGGMTNYADSVKGRFTISRDNAKNTVYLQMNSLKPEDTAVYYCNADKDPFFPGDYWGQGTQVTVSS
# V domain 2: QVQLVESGGGLVQAGGSLRLSCAASGRSVSENDVRWYRQAPRKQREWVAAITSSGITGYADSVRIRFTISRDLAKNTVYLQMNSLKPEDTAVYYCYMTDQYWGQGTQVTVSS
# B4: DGL097 (bispecific antibody, V domains shown)
# V domain 1: QVQLVESGGGLVQAGGSLRLSCAASGRTFSSYDMGWFRQAPGKEREFVAALRWSGGSTSYADSVKGRFTISRDNAKNTVYLHMNSLKPEDTAVYYCAATLETDSGTYWADYWGQGTQVTVSS
# V domain 2: QVQLVESGGGLVQAGGSLRLSCVASGTFFQIHVMGWYRQAPGKQRELVAFIINNGGTRYADSVKGRFTISRDYAKNTVYLQMNSLKPEDTAVYYCNTEGTYRGRYSTDNWGQGTQVTVSS
# B5: DGL077 (bispecific antibody, V domains shown)
# V domain 1: QVQLQESGGGLVQPGGSLRLSCAASGSIFSTKGLGWYRQAPGEQRELVAGISSAGWIFYTQSVKGRFTMSRDNAKNTVYLQMNSLKPEDTAVYYCNSAQSGVPLRSWGQGTQVTVAS
# V domain 2: EVQLVESGGGVAQAGGSLRLSCAASITSFSLNTMGYYRQLPGKQRELVAVESSSGITNYADSVKGRFTISRDGAKNTVFLQMNSLTPEDTAVYYCGGKLFGRDFWGQGTQVTVSS
# B6: DGL079 (bispecific antibody, V domains shown)
# V domain 1: EVQLVESGGGLVQAGGSLRLSCAASGRTFSNYDMGWFRQAPEKEREFVAVISGPGGIAFYGDSVKGRFTISRDNTKNTVYLQMNRLKSEDTAVYYCAAAPRGSYYRRTNSYDYWGQGTQVTVSS
# V domain 2: B5 V domain 2
# B7: DGL078 (bispecific antibody, V domains shown)
# V domain 1: B1 V domain 1
# V domain 2: B5 V domain 2
# B8: DGL090 (bispecific antibody, V domains shown)
# V domain 1: EVQLVESGGGLVQPGGSLRLSCAASGFFLDDYVLGWFRQAPGKPREGVSCISSRGRYLNYAETVKGRFTISRSNAKNTVYLQMNNLEPEDTAVYYCAAVRRVSEVCKLAEDDFASWGQGTQVTVSS
# V domain 2: QVQLQESGGGLVQAGGSLKLSCQASGLTFKRNTMGWFRQAPGKEREFVAHFLWTGGETDYADAVKGRFTISRDNAKNTVYLQMNSLKPEDTAVYFCAANYAGYRIDGYQYWGQGTQVTVSS
# B9: DGL091 (bispecific antibody, V domains shown)
# V domain 1: QVQLVESGGGLVQAGGSLRLSCAASGRTFSKHAMGWFRQAPGKEREFVAAIDWSGGSTYYADSVKGRFTISRDNAKNTVYLQMDSLKPEDTAVYYCAADSYTDYAQLWLPELESEYDYWGQGTQVTVSS
# V domain 2: QVQLVESGGGLVQAGDSLRLSCVASERTFSSYTMGWFRQAPGKEREFTAALSWWNGGISTAYADSVKGRFTISRDNAKNTVYLQMNSLKTEDTALYYCAAARDRMPRADEYDYWGQGTQVTVSS
# B10: DGL092 (bispecific antibody, V domains shown)
# V domain 1: B9 V domain 1
# V domain 2: EVQLVESGGGLVQAGGSLRLSCAASGRTFRNYHMGWFRQAPGQEREFVAAISSSGGKTSYPDSVNGRFTISRDNAKNTVYLQMNNLKVEDTAVYYCAADPRYWVAAGGSEPENVEVWGQGTLVTVSS
# B11: DGL209 (bispecific antibody)
# heavy 1: QVQLVESGGGLVQAGGSLRLSCAASGRTFSKHAMGWFRQAPGKEREFVAAIDWSGGSTYYADSVKGRFTISRDNAKNTVYLQMDSLKPEDTAVYYCAADSYTDYAQLWLPELESEYDYWGQGTLVTVSSPLAPCPPCPAPEAAGAPSVFLFPPKPKDTLMISRTPEVTCVVVDVSHEDPEVKFNWYVDGVEVHNAKTKPREEQYNSTYRVVSVLTVLHQDWLNGKEYKCKVSNKALPAPIEKTISKAKGQPREPQVCTLPPSRDELTKNQVSLSCAVKGFYPSDIAVEWESNGQPENNYKTTPPVLDSDGSFFLVSKLTVDKSRWQQGNVFSCSVMHEALHNHYTQKSLSLSPGWSHPQFEK
# heavy 2: QLQLVESGGGLVQAGGSLRLSCAASRSITFSHNVMGWYRQAPGKQRELVASIGSGGSTNYVDSVKGRATISRDNAKKTVYLQMNSLKPEDTAVYYCGVVVGVYRGSLGQGTLVTVSSPLAPCPPCPAPEAAGAPSVFLFPPKPKDTLMISRTPEVTCVVVDVSHEDPEVKFNWYVDGVEVHNAKTKPREEQYNSTYRVVSVLTVLHQDWLNGKEYKCKVSNKALPAPIEKTISKAKGQPREPQVYTLPPCRDELTKNQVSLWCLVKGFYPSDIAVEWESNGQPENNYKTTPPVLDSDGSFFLYSKLTVDKSRWQQGNVFSCSVMHEALHNHYTQKSLSLSPGEPEA
# B12: DGL208 (bispecific antibody)
# heavy 1: QVQLVESGGGLVQAGGSLRLSCAASGRTFSKHAMGWFRQAPGKEREFVAAIDWSGGSTYYADSVKGRFTISRDNAKNTVYLQMDSLKPEDTAVYYCAADSYTDYAQLWLPELESEYDYWGQGTLVTVSSPLAPDKTHTCPPCPAPEAAGAPSVFLFPPKPKDTLMISRTPEVTCVVVDVSHEDPEVKFNWYVDGVEVHNAKTKPREEQYNSTYRVVSVLTVLHQDWLNGKEYKCKVSNKALPAPIEKTISKAKGQPREPQVCTLPPSRDELTKNQVSLSCAVKGFYPSDIAVEWESNGQPENNYKTTPPVLDSDGSFFLVSKLTVDKSRWQQGNVFSCSVMHEALHNHYTQKSLSLSPGWSHPQFEK
# heavy 2: not shown
# B13: DGL210 (bispecific antibody)
# heavy 1: QVQLVESGGGLVQAGGSLRLSCAASGRTFSKHAMGWFRQAPGKEREFVAAIDWSGGSTYYADSVKGRFTISRDNAKNTVYLQMDSLKPEDTAVYYCAADSYTDYAQLWLPELESEYDYWGQGTLVTVSSGGGGSGGGGSGGGGSGGGGSCPPCPAPEAAGAPSVFLFPPKPKDTLMISRTPEVTCVVVDVSHEDPEVKFNWYVDGVEVHNAKTKPREEQYNSTYRVVSVLTVLHQDWLNGKEYKCKVSNKALPAPIEKTISKAKGQPREPQVCTLPPSRDELTKNQVSLSCAVKGFYPSDIAVEWESNGQPENNYKTTPPVLDSDGSFFLVSKLTVDKSRWQQGNVFSCSVMHEALHNHYTQKSLSLSPGWSHPQFEK
# heavy 2: QLQLVESGGGLVQAGGSLRLSCAASRSITFSHNVMGWYRQAPGKQRELVASIGSGGSTNYVDSVKGRATISRDNAKKTVYLQMNSLKPEDTAVYYCGVVVGVYRGSLGQGTLVTVSSGGGGSGGGGSGGGGSGGGGSCPPCPAPEAAGAPSVFLFPPKPKDTLMISRTPEVTCVVVDVSHEDPEVKFNWYVDGVEVHNAKTKPREEQYNSTYRVVSVLTVLHQDWLNGKEYKCKVSNKALPAPIEKTISKAKGQPREPQVYTLPPCRDELTKNQVSLWCLVKGFYPSDIAVEWESNGQPENNYKTTPPVLDSDGSFFLYSKLTVDKSRWQQGNVFSCSVMHEALHNHYTQKSLSLSPGEPEA
# Target: T1, IL-18 receptor (IL-18Rα/IL-18Rβ) …
# Assay: cell-based or functional assay
HEK-Blue IL-18: Abs405 (Emax) [Abs],HEK-Blue IL-18: EC50 [pM],Binder
0.34,10,B1
0.7,19,B2
0.47,12,B3
0.45,14,B4
0.6,5.4,B5
0.32,17,B6
0.65,24,B7
0.26,33,B8
0.35,32,B9
0.61,19,B10

# Target: T1, IL-18 receptor (IL-18Rα/IL-18Rβ) …
# Assay: cell-based or functional assay
# Remark: another data set of the same source
HEK-Blue IL-18: Abs 405 at 100 nM [Abs],HEK-Blue IL-18: Fold over Background [fold],Binder
2,8.7,B11
1.4,5.9,B12
1.1,4.6,B13
